The source of these data is patent publication US20260364189 (published 2026).

Positions count from the first letter of the chain named.

The target of one experiment is hTFR1-His (human, UniProt P02786). As to the kind of experiment: SPR. A general note: SPR reads the build-up and loss of mass on a sensor chip optically.
The next experiment has as its target T1, fasTFR1 (cell-expressed) (Macaca fascicularis).
T1 chain: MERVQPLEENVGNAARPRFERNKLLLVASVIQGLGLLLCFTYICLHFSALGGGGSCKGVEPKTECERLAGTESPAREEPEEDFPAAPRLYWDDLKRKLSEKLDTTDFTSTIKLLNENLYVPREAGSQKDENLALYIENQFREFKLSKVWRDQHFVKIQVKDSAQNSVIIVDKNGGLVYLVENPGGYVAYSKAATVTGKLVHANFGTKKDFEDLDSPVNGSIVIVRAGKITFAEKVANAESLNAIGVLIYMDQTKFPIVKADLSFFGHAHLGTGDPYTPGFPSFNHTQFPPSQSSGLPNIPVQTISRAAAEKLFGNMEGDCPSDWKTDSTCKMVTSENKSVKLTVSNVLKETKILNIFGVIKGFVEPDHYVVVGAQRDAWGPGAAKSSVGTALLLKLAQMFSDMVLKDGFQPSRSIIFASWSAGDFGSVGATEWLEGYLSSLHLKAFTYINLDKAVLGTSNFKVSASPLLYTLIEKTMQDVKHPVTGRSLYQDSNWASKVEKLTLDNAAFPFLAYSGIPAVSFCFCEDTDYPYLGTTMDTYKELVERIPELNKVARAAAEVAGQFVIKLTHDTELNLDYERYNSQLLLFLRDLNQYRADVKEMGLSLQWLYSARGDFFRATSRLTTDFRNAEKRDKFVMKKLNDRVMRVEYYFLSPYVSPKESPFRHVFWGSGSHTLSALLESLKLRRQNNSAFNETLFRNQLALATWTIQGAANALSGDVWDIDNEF
Briefly: FACS. Background: Flow cytometry measures light scatter and fluorescence of single cells or particles in a stream.

hTFR1-His, sequence (P02786 89-760): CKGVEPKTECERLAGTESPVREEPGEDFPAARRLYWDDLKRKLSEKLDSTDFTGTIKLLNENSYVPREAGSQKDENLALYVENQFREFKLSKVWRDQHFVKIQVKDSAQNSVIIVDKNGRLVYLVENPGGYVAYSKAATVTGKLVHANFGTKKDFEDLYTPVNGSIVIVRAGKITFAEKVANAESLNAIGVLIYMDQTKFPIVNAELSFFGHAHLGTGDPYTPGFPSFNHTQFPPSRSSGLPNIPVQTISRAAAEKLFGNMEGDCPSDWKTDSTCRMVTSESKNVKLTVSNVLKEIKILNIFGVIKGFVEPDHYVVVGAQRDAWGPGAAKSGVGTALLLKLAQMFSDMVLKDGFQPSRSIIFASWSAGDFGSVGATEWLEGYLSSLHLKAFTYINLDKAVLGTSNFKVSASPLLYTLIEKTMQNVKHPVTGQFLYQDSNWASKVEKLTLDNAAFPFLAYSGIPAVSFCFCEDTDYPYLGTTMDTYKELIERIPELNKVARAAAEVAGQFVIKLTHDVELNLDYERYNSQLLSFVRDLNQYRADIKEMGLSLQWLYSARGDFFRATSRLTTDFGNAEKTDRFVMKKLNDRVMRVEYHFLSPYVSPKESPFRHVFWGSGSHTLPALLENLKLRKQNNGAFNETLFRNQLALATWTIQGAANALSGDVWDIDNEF

B1: 24G5 (designed binder)
chain: QLQLQESGGGLVQPGGSLRLTCAASGFTFSSFAMSWVRQAPGKGLERVSEISDSGGNTYYADSVKGRFTISRDNSKNTLYLQMNSLRAEDTAVYYCAKDDSSGWAFNIWDQGTVVTVSS
By Kd is commonly meant the free concentration of one partner at which half of the binding sites on the other are occupied at equilibrium, for simple one-to-one binding. High values mean a looser complex, low ones a tighter complex. For the molecule B1, the dissociation constant Kd in the experiment with hTFR1-His worked out at 2.05 nM.

B2: 24A1 (designed binder)
chain: B1 chain with Q1E, L2V, Q5V, F32Y, D53G, G56S, N57S, Y59N
B2: in the experiment with hTFR1-His, binding was put at a Kd of 2.93 nM.

B3: 24C9 (antibody, V domains shown)
VH: EVQLVQSGGGVVQPGRSLRLSCAASGFTLSSYGMYWVRQAPGKGREWVAFIRFDESKKYYADSVKGRFTISRDNSKNTLYLQMNSLRAEDTAVYYCARDGEGGYCTNGVCHGLDVWGQGTTVTVSS
In the case of B3, the binding result in the experiment with fasTFR1 (cell-expressed) is listed as “no binding”. Further, the dissociation constant Kd with hTFR1-His was 14.3 nM.

B4: 23B8 (antibody, V domains shown)
VH: QVTLKESGGGLVKPGGSLRLSCAASGFPFSNAWMNWVRQAPGKGLEWVGHIKSKTDGGTTDYAAPVKGRFTISRDDSKNMVFLQMNSLKTEDTAVYYCTTDRAYCGGDCSHYYYHDLDVWGQGTTVTVSS
In the experiment with hTFR1-His, B4 returned an equilibrium dissociation constant (Kd) of 8.73 nM.
